This series is described as follows: yeast display, Sf9 membrane polyspecificity reagent, FACS + sequencing; frameworks hold sequencing errors. In outline: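 In a synthetic yeast display library (Saccharomyces cerevisiae BJ5465), nanobody expression was induced with galactose for 36–48 hours. FACS gates were set low and high (top ~1%) using anti-HA fluorescence for expression and streptavidin fluorescence for binding of the Sf9 membrane reagent. Each polyreactivity label is drawn from the gate of origin.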
In the case of “QVQLVESGGGLVQAGGSLRLSCPASGSTFYEYAMGWYRQEPGKERELVAAITSGGSTYYADSVKGRFTISRDNAKYTVYLQLNSQKPEDTAVYYCAADPRIRRGDRSTHGYDYWGQGTQVTVSS”, the “polyreactivity (PSR sort gate)” value is given as “low polyreactivity”.
For “QVQLVESGGGLVQAGGSLRLSCAASGRNLQNYAMGWYRQPPGKERELVAAISFSGGRTNYADSVKGRFTISRDNAKNTVYLQMKSLNPEDTAVYYCAKVYRRSGSVSRYDYWGQGTQVTVSS” the value was “high polyreactivity”; for “HVQLVESGGGLVQAGGSLRLSCAASGYILDRNAMGWYRQAPGKESELVAVISWGGTRTYYADSVKGRFTISRDNAKNTVYLQMNSLKPEVTAVYYCARYPYYYGYAGRYDYWGQGTQVTVSS”, “high polyreactivity”.
For “QVQLVESGGGLVQAGGSHRLSCAASGITFAFNTMGWYRQAPGKERELVAAISYSGGRTYYADSVKGRFTISRDNAKNTVYLQMNSLKPEDTAVYYCNTRYRGSYDYWGQATQVTVSS” the value was “high polyreactivity”; for “QVQLVESGGGLVQAGGSLRLSCAASGRIFSYYAMGWYRQAPGKERELVAAISRTGGRTYYADSVKGRFTISRDNAKNTVYLQMNSLKPEDTAVYYCNVVGRRYWHWDQALDYWGQGTQVTVSS”, “high polyreactivity”.
For “QVQLVESVGGLVQAGGSLRLSCAASGSIFSVNAMGWYRQAPGKERELVASINFRGGRTYYADSVKGRFTISRDNAKNTVYLQMNSLKPEDTAVYYCAAVITQTDTGYGPSFRVYYWGQGTQVTVSS” the value was “high polyreactivity”.
Consider “QVQLVESGGGLVQAGGSLRLSCAASGSTFGWYVMGWYRQAPGKERELVAAITTGGSTNYADSVKGRFTISRDHAKNSVYLQMNSLKPEDTAVYYCGKAVTEVIYRGVTEGAVDYWGQGTQVTVSS”, for which the “polyreactivity (PSR sort gate)” value was “low polyreactivity”.
Take “QVQLVESGGGLVQAGGSLRLSCAASGFIFGRYAMGWYRQAPGKERELVAVITWSGGRTYYADSVKGRFTISRDNAKNTVYLQMNSLKPEDTAVYDCAADRYPYHYGYDYWGQGTQVTVSS”: the “polyreactivity (PSR sort gate)” value is given as “high polyreactivity”.
Regarding “QVQLGESGGGLVQAGGSLRLSCAASGRIFVYNAMGWYRQAPGKERQLVAAIRNDGSTNYADSVKGRFTISRDNAKNTVYFQMNSLKPEDTAVYYCAKSVTGWRGLWYTPRNYYWGQGTQVTVSS”, the “polyreactivity (PSR sort gate)” value is “high polyreactivity”.
For “QVQLVESGGGLVQAGGSLRLSCAASGFIFVSYALGWYRQAPGKETELVAAISSSGGTTNYADSVKGRFTISRDNAKNTVYLQMNSLKPEDTAVYYCAAYVYQTPHSLHIYDYWGQGTQVTVSS” the value was “low polyreactivity”; for “QVQLVESGGGLVQAGGSLRLSCAASGFTFRWNAMGWYRQAPGKERELVAAITSRGGSTYYADSVKGRFTISRDNAKNTVYLQINSLKPEDTAVYYCARLAGIGFSYRYDYWGQGTQVTVSS”, “high polyreactivity”; for “QFQLVESGGGLVQAGGSLRLSCAASGITFRDYAMGWYRQAPGKERELVAAISTRGVRTYYADSVKGRFTISRDNAKNTVYLQMNSLKPEDTAVYYCAARSVTYWWVGYEFYYWGQGTQVTVSS”, “high polyreactivity”.
On to “QVQLVESGGGLVQAGGSLRLSCAASGFIFHSYDMGWYRPAPRKERELVASISRGGGSTYYADSVKGRFTISRDNAMNTVYLQMNSLKPEDTAVYDCSARVYSLGYGGDYWGQGTQVTVSS”, for which the “polyreactivity (PSR sort gate)” value is “high polyreactivity”.
With “QVQLVESGGGLVQAGGSHRLSCAASGGTFNSNAMGWYRQAPGKERELVASITWRGGTYYADSVKGRFTISRDNAKNTVYLQMNSLKPEDTAVYYCAARGTIPGIHWIYYYWGQGTQVTVSS”, the “polyreactivity (PSR sort gate)” value was “high polyreactivity”.
As to “QVHLVESGGGLVQAGDSLRLSCASSGIIFYDYAMGWYRPAPGKERELVAAITSSGGSTYYADSVKGRFTISRDNAKNTVYLQMNSLIPEDTAVYYCAAATRGSGRRYDYLGQGTQVTVSS”, the “polyreactivity (PSR sort gate)” value is given as “high polyreactivity”.
For the sequence “QVQLVESGGGLVQAGGSLRLSCAASGRTLASNAMGWYRQAPGKERELVAAINRGGSTYYADSVKGRFTISRDNAKNTVYLQMNSLKPEDTAVYYCRFYSYWSWLGREYDYWGQGTQVTVSS”, the “polyreactivity (PSR sort gate)” value is listed as “low polyreactivity”.
For “RSGGGLVQAGGSLRLSCAPSGRIFKINAMGWYRQPPGKERALVARITRGGSTYYADSVKGRFTISRDNATNTVYLQMTSVKPEDTAVYYCAADDTGPYSNSYDYWGQGTQVTFSS” the value was “low polyreactivity”; for “QVQLVESGGGLVQAGGSLRLSCAASGRTFFYAMGWYRQAPGKEREFVAAISWSGGSTYYADSVKGRFTISRDNAKNTVYLQMNSLKPEDTAVYYCNKVGYYGVGTSQEFDYWGQGTQVTVSS”, “high polyreactivity”.
In the case of “QVQIVESGGGLVQAGGSLRLSCAASGRTFYSYAMGWYRQAPGKERELVAAIRWPGVRTYYADSVKGRFTISRDNAKNSFYLQMNSLKPEDTAVYYCAVYRYSGKGYRGPRDYWGQGTQVTVSS”, the “polyreactivity (PSR sort gate)” value was “high polyreactivity”.
Take “QVQLVESGGGLVQAGGSLRLSCAASGSTFVVNAMGWYRQAPGKERELVAAITQSGGSTFYADSVKGRFTISRDNAKNTVYFQMNSLKPEDTAVYYWGQGTQVTVSS”: the “polyreactivity (PSR sort gate)” value is on record as “low polyreactivity”.
Consider “QDQLVESGGGLVQAGGSLRLSCAASGFTFGENSMGWYRQAPGKERELVAANRYSGGSTYYADSVKGRFTISRDNAKNTVYLQMNSLKPEDTAVYYCNADTYALGPAVIPGDEYWGQGTQVTVSS”, for which the “polyreactivity (PSR sort gate)” value is “low polyreactivity”.
For “QVQLVESGGGLVQAGASLRLSCAASGSISKSYAMGWYRQAPGKERELVAAISSRGGSTYADSVKGRFTISRDNAKNTVYLQMNSLKPEDTAVYYCAATNYGTFWGGQSERYDYWGQGTQVTVSS” the value was “low polyreactivity”; for “QVQLVESGGGLVQAGGSLRLSCAACGRIFTYNAMGWYRQAPGKERELVAAISSSGGRTYYADSVKGRFTISRDNAKNTLYLEMNSLKPEDTAVYYCARAYREGGRTQRGDYWGQGTQVTVSS”, “high polyreactivity”.
As for “QVQLVESGGGLVQAGGSLRLSCAASGFIFKGNAMGWSRQAPGKERELVAAISSRGGSTYYADSVKGRFTISRDNAKNTVYLQMNSLKPEDTAVYYCATRVYWRNDYWGQGTQVTVSS”, the “polyreactivity (PSR sort gate)” value was “high polyreactivity”.
Turning to “QVQLVESGGGLVQAGGSLRLSCAASGSTLRRYAMGWYRQAPGTERELVASNSRGGTSTYYADSVKGRFTISRDNAKNTVYLQMKSLKPEDTAVYYCAAATPYRYNYWGQGTQVTVSS”, the “polyreactivity (PSR sort gate)” value was “high polyreactivity”.
For “QVQLVDSGGGLVQAGGSLRLSCAASGLTFSTYAKGWYRQAPGTERELVAVIRRTGSTYYADSVKGRFTISRDNAMNTVYLHMNGLKPEDNAVYYFATARRHVSGYDFWGQCTQVTVSS” the value was “high polyreactivity”.
For “QVKLVESGGGLVQAGGSLRLSCAASGSIISGYAMGWYRQAPGKERELVAAISSSGGRTYYADSVKGRFTISRDNAKNTVYLQMYSLKPEDTAVYYCATVWSIVRGSYYNRYDYWGQGTQVTVSS” the value was “high polyreactivity”; for “QVQLVESGRGLVQAGGSLRLSCAASGRTVTNNVLGWYRQAPGKEREFVASISSGGGSTYYADSVKGRFTISRDNANNTVYVQMNSLKPEDTAVYYCAAGYWWRYALYGYWGQGTQVTVSS”, “low polyreactivity”; for “QVQLVESGGGLVQAGGSLRLICAASGFTFYIYAMGWYRQAPGKERELVAAINFRGGSTYYADSVKGRFTLSRDNAKNTVYLQMNSLKPEDTAVYYCAAVPRTYSGYYYWGQGTKVTVSS”, “high polyreactivity”.
With “QVQLVESGGGLVQAVVSLRLSCAASGGTITSYAMVSSRQAPGKERELVAAITRSGGSTYYADSVKGRFTISRDNAKNTVYLQMKSLKPEDTAVYYCAARYWHSYGYWGQGTQVTVSS”, the “polyreactivity (PSR sort gate)” value is reported as “high polyreactivity”.
In the case of “QVQLVESGGGLVQAGGSLRLSCAASGSTFSRYAMGWYRQAPGKERDLVAAISWGGNTYYADSVKGRFTISRDNAKNTVYLQMNSLKPEDTAVYYCNRYSKLYNTMDYWGQGTQVTVSS”, the “polyreactivity (PSR sort gate)” value is “high polyreactivity”.
Regarding “QVQLVESGGGLVQAGGSLRLSCAASGSIFSSYALGWYRQAPGKERELVAAISQSGGDTYYADSVKGRFTISRDNAKNTVYLQMNSLKPEDTAVYYCAADWAYYVASYLYYTFDYWGQGTQVTVSS”, the “polyreactivity (PSR sort gate)” value was “low polyreactivity”.
As for “QVQLVESGGGLVQAGGSLRLSSAASGSTFFSNAMGWYRQAPGKERELVATIRFGGGSTYADSVKGRFTISRDNAKNTVYLQMNSLKPEDTAVYYCAADDSDKRYTRSWYGYWGQGTQVAVSS”, the “polyreactivity (PSR sort gate)” value is “low polyreactivity”.
In the case of “QVQLVESGGGLVQAGGSLRLSCAASGRIFTYYAMGWYRQAPGKERELVAAINGRGGRTYYADSVKGRFTISRDNAKNTVYLQMNSLKPEDTAVYYCAARGYAPDTYGYWGQGTQVTVSS”, the “polyreactivity (PSR sort gate)” value is “high polyreactivity”.
Turning to “QVQLVESGGGIVQAGGSLRLSCAASGITFEYNAIGWYRQAPGKARELVAAISQSSGSTYYADSVKGRFTISRDYAKNTVYLQMNSLKPEDTAVYYCNADTIIYEGGYWGQGTQVTVSS”, the “polyreactivity (PSR sort gate)” value is reported as “low polyreactivity”.
Turning to “QVQLVESGGGLVQAGGSLRLSCAASGSTFRRYAMGWYRQAPGKERELVADIRGIGGSTYYADSVKGRFTISRDNAKNTVYLQMNSLKPEDTAVYYCNTSTLGGYYWGQGTQVTVSS”, the “polyreactivity (PSR sort gate)” value is “low polyreactivity”.
Take “QVQLVESGGGLVQAGGRLRLSCAASGRIFNKYVMGWYRQAPGKERELVAAISGRGGSTYYADSVKGRFTISRDYEKNTVYLQMNSLKPEDSAVYYCAAEYQGRRMYYWGQGTQVTVSS”: the “polyreactivity (PSR sort gate)” value is recorded as “high polyreactivity”.
Take “QVQLVESGGGLVQAGGSLRLSCAASGSIFDRNAMGWYRQAPGKERELVAAISFSGGSTYYADSVKGRFTISRDNAKNTVYLQMNSLKPEDTAVYYCAKAGRYANLPYVYWGQGTQVTVSS”: the “polyreactivity (PSR sort gate)” value is on record as “high polyreactivity”.
Turning to “QVQLVESGGGLVQAGGSLRLSCAASGSIFTHNDMGWYRQAPGQERELVAAISSGGSTNYADSVTGRFTISRDNAKNTVYLQMNSLIPVETAVYYCAKSIDGWYWRRRRYDYWGQGTQVTVSS”, the “polyreactivity (PSR sort gate)” value was “low polyreactivity”.
“QVQLVESGGGLVQAGGSLRLSCAASGFTFSRNAMGWYRQAPGKERELVAAISSSGGSTYYADSVKGRFTISRDNAKNTVYLQMNSLKPEDTAVYYCNVDHWRRGRSDNYWGQGTQVTVSS”: the “polyreactivity (PSR sort gate)” value was “high polyreactivity”.
As for “QVQLVESGGGLVQAGGSLRLSCAASGSIFGSYARGRYRQAPVKERELVAGITYRGSSTYYADSVKGRFTISRDKAKNTVYLQMNSLKPEDTAVYYCAADPVFDEYDYWGQGTQVTVSS”, the “polyreactivity (PSR sort gate)” value is reported as “low polyreactivity”.

For the origin of these results see the nanobody polyreactivity screen of Harvey et al. (2022).
